From US20110052551A1, “CARDIAC MYOCYTE MORPHOGENIC COMPOSITIONS AND METHODS OF USE THEREFOR” (priority 2008, published 2011)

Experiments:
unfractionated BMMNCs [1] = assay: Immunocytochemistry for pan-hematopoietic marker CD45; format: cell-based, mice; details: after 21 days of culture; percent of total cells
Experimental: Immunocytochemistry. Cells were fixed on glass cover-slides with 4% paraformaldehyde for 20 minutes at 4° C. Cells were washed four times and permeabilized with BD PERM/WASH™ (containing saponin; BD Biosciences, San Jose, Calif., United States of America). For immunostaining, separate preparations of BD PERM/WASH™ containing primary monoclonal antibodies against either cardiac troponin T (cTnT; Santa Cruz Biotechnology, Santa Cruz, Calif., United States of America) or cardiac myosin heavy chain (cMyHC; Novus Biologicals, Inc., Littleton, Colo., United States of America) or connexin-43 or Oct-4 were prepared; all primary antibodies, save cMyHC, were purchased from Santa Cruz Biotechnology. Each preparation also contained primary monoclonal antibodies against nestin, glial fibrillary acidic protein (GFAP), CD11B, Gr-1 (myeloid lineage markers), the CD45 epitope, myogenin
These preparations were then applied separately (i.e., mixtures either with cTnT or with cMyHC) or, for co-immunostaining experiments, in combinations to cells for 16 hours at 4° C. and 37° C. for the final hour. […]

unfractionated BMMNCs [2] = assay: qRT-PCR of pluripotency markers Oct-4 and Nanog in cultured BMMNCs; format: cell-based, mice; details: BMMNCs cultured 21 days, 150 ng/ml; normalized to 18S rRNA
From the text: Isolation and culture of unfractionated BM-derived mononuclear cells (BMMNCs). For each experiment, two mice were euthanized by CO2 inhalation followed by cervical dislocation and their femurs and tibias were removed and placed in Dulbecco's Modified Eagle Medium/F12 (DMEM/F12; Invitrogen Corp.). The bones were stripped of soft tissue with fine forceps exposing the long bone shafts. The BM was flushed into and suspended in fresh DMEM/F12 using a 23-gauge needle and 5-ml syringe. The BM was further dispersed by repeated passage through the 23-gauge needle for 10 minutes.
After filtering cells through a 70 μm nylon mesh filter, the MNC fraction (BMMNCs) were separated using FICOLL-PAQUE™ (Sigma Aldrich, St. Louis, Mo., United States of America) density-gradient centrifugation as described in (Zuba-Surma et al., 2006). See also FIG. 9A. The viability of unfractionated BMMNCs was assessed by Trypan blue (Sigma Aldrich) staining. Approximately 15×10^6 unfractionated BMMNCs were obtained from each mouse. Adult unfractionated BMMNCs were seeded (n=5×10^5 cells/well) in 6-well tissue culture plates (lower chamber of a 6-well tissue culture TRANSWELL® system; Corning Inc. Life Sciences, Lowell, Mass., United States of America) on fibronectin (FN)-coated glass coverslips (Fischer Scientific). […]
Assessment of mRNA expression by quantitative real-time RT-PCR (qRT-PCR). […]

B1: Wnt3a: recombinant Wnt3a protein, canonical Wnt, used at 150 ng/ml (protein, UniProt P56704 19-352, looked up)
Protein Wnt-3a: SYPIWWSLAVGPQYSSLGSQPILCASIPGLVPKQLRFCRNYVEIMPSVAEGIKIGIQECQHQFRGRRWNCTTVHDSLAIFGPVLDKATRESAFVHAIASAGVAFAVTRSCAEGTAAICGCSSRHQGSPGKGWKWGGCSEDIEFGGMVSREFADARENRPDARSAMNRHNNEAGRQAIASHMHLKCKCHGLSGSCEVKTCWWSQPDFRAIGDFLKDKYDSASEMVVEKHRESRGWVETLRPRYTYFKVPTERDLVYYEASPNFCEPNPETGSFGTRDRTCNVSSHGIDGCDLLCCGRGHNARAERRREKCRCVFHWCCYVSCQECTRVYDVHTCK
With B1 the “cells positive for CD45” value (unfractionated BMMNCs [1]) was 69.9±2.9%, the “increase in Nanog mRNA expression compared with baseline” value (unfractionated BMMNCs [2]) was 158±0.6 fold and the “increase in Oct-4 mRNA expression compared with baseline” value (unfractionated BMMNCs [2]) was 177±0.4 fold.
